This is an account of results in US20210070840A1 (Bristol-Myers Squibb, published 2021).

A word on the IC50: it is the concentration that inhibits the measured activity by half. The Kd is a measure of binding affinity in units of concentration.

To fix the notation:
T1: human IL-23 (human, UniProt P29460 23-328; Q9NPF7 20-189)
T1 construct: Secreted from Sf9 cells for the crystal structure; One molecule is used for all three; also called Interleukin-23
T1 sequence (looked up) 1: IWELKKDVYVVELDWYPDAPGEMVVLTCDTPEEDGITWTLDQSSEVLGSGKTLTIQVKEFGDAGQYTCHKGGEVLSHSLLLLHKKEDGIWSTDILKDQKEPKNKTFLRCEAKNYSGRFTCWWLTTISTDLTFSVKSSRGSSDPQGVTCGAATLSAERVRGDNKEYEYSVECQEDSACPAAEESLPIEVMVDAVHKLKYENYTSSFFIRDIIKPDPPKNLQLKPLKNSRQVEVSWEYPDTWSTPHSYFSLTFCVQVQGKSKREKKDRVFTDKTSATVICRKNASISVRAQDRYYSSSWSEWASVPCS
T1 sequence (looked up) 2: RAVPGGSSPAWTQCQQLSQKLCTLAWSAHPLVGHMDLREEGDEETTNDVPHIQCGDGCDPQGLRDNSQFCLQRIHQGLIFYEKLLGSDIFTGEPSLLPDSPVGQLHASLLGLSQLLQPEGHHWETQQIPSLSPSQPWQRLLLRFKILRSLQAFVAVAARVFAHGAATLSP

B1: Adnectin 2 (designed binder)
chain: MGVSDVPRDLEVVAATPTSLLISWEHDYPYRRYYRITYGETGGNSPVQEFTVPKDVDTATISGLKPGVDYTITVYAVTSSYKYDMQYSPISINYRTEIDKPSQHHHHHH
notes: also called anti-IL-23 Adnectin; ATI-000929
B2: Adnectin 2 Y73→R (designed binder)
chain: B1 chain with Y75R
B3: Adnectin 2 Y73→A (designed binder)
chain: B1 chain with Y75A
B4: Adnectin 2 T35→E (designed binder)
chain: B1 chain with T37E
B5: Adnectin 2 V45→Q (designed binder)
chain: B1 chain with V47Q
B6: Adnectin 2 V75→K (designed binder)
chain: B1 chain with V77K
B7: Adnectin 2 Y28→A (designed binder)
chain: B1 chain with Y30A
B8: Adnectin 2 Y73→N (designed binder)
chain: B1 chain with Y75N
B9: Adnectin 2 Y81→A (designed binder)
chain: B1 chain with Y83A
B10: Adnectin 2 P87→A (designed binder)
chain: B1 chain with P89A
B11: Adnectin 2 V45→E (designed binder)
chain: B1 chain with V47E
B12: Adnectin 2 V75→Q (designed binder)
chain: B1 chain with V77Q
B13: Adnectin 2 T35→N (designed binder)
chain: B1 chain with T37N
B14: Adnectin 2 V45→D (designed binder)
chain: B1 chain with V47D
B15: Adnectin 2 V45→N (designed binder)
chain: B1 chain with V47N
B16: Adnectin 2 T35→D (designed binder)
chain: B1 chain with T37D
B17: Adnectin 2 Y73→Q (designed binder)
chain: B1 chain with Y75Q
B18: Adnectin 2 V75→Y (designed binder)
chain: B1 chain with V77Y
B19: Adnectin 2 T35→Q (designed binder)
chain: B1 chain with T37Q

Positions count from the first letter of the chain named.

The first assay has as its target T1, human IL-23. Briefly: ratio of competition ELISA IC50, parent/mutant. In general terms: In an ELISA, binding on a coated surface is turned into a signal by an enzyme label.
For the molecule B1, the “Activity (parent/mutant)” value stood at 1 ratio.
Same read-out and setting: the result for B2 reads 0.8 ratio.
Still for that read-out and setting: the result for B3 reads 1.5 ratio.
Same read-out and setting: next, B4: 1.7 ratio; B5: 2.9 ratio; B6: 0.2 ratio.
For B7, the “Activity (parent/mutant)” value came out at 0.08 ratio.
The same measure, in the same setting: the result for B8 reads 0.8 ratio.
In the case of B9, the “Activity (parent/mutant)” value came out at 0.03 ratio.
Regarding B10, the “Activity (parent/mutant)” value came to 0.1 ratio.
For the molecule B11, the “Activity (parent/mutant)” value worked out at 1.9 ratio.
With B12, the “Activity (parent/mutant)” value came out at 0.4 ratio.
In the case of B13, the “Activity (parent/mutant)” value was 0.6 ratio.
Take B14: the “Activity (parent/mutant)” value worked out at 1.2 ratio.
Same read-out and setting: the result for B15 reads 1.8 ratio; that for B16, 0.02 ratio; that for B17, 3.8 ratio.
Regarding B18, the “Activity (parent/mutant)” value worked out at 0.4 ratio.
For the molecule B19, the “Activity (parent/mutant)” value amounted to 1 ratio.

A further assay addresses T1, human IL-23. The assay can be described thus: competition ELISA: Adnectin + 1 nM IL-23 on coated IL-23R-Fc.
In the case of B1, the IC50 was 1 nM.
On the same count and under the same terms, next, B2: 1.2 nM; B3: 0.65 nM.
Still for that read-out and setting: the result for B4 reads 0.6 nM.
Still for that read-out and setting: next, B5: 0.34 nM; B6: 5.7 nM; B7: 13 nM.
As for B8, the IC50 turned out to be 1.2 nM.
The same measure, in the same setting: next, B9: 35 nM; B10: 8.3 nM; B11: 0.51 nM.
The same measure, in the same setting: next, B12: 2.3 nM; B13: 1.7 nM.
As to B14, the 50% inhibitory concentration (IC50) was 0.83 nM.
Still for that read-out and setting: the result for B15 reads 0.54 nM.
On the same count and under the same terms, next, B16: 49 nM; B17: 0.26 nM.
Take B18: the IC50 worked out at 2.2 nM.
For the molecule B19, the 50% inhibitory concentration (IC50) was 1 nM.

For the next assay, the target named is T1, human IL-23. The assay can be described thus: SPR (Biacore T100), immobilized human IL-23, single cycle kinetics.
B1 yielded a dissociation constant (Kd) of 2 nM.
